The target in one data set is T1, Slr1022 (Synechocystis sp. PCC 6803, UniProt P73133).
T1 construct: gene argD
T1 sequence (P73133 1-429): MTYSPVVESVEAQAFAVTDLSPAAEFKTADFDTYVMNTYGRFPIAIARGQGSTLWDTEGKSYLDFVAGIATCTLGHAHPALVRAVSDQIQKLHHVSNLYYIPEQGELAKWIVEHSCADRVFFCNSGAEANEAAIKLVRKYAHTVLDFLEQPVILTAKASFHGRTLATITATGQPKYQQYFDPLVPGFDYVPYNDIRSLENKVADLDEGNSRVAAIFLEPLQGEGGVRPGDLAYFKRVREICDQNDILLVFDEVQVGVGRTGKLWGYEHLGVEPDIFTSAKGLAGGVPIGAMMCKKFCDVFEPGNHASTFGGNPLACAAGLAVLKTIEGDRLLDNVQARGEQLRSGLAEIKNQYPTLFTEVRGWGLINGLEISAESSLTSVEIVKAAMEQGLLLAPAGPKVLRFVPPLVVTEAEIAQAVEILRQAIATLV
Description: UV-visible absorption at […] nm (internal aldimine). It counts as binding. Conditions: 100 mmol/L Tris-HCl pH 8.5; covalent (Schiff base).

Substrate in data set [1]: NCCC[C@H](N)C(=O)O
Description: purified protein. The following applies: 0.5 mmol/L α-KG, 0.1 mmol/L PLP, 6 mmol/L NAD+, 100 mmol/L Tris-HCl pH 8.5, 25 °C, apparent.

Substrate in data set [2]: NCCCC(=O)O
Put plainly: purified protein. The following applies: 0.5 mmol/L α-KG, 0.05 mmol/L PLP, 2 mmol/L Mg2+, 2 mmol/L NADP+, 100 mmol/L Tris-HCl pH 8.5, 25 °C, apparent.

Data set [3] concerns the molecule itself. Description: SEC; FPLC, Bio-Rad NGC system, ENrich SEC 650 gel filtration column, mobile phase standard PBS without exogenous PLP; mass calibrated with myoglobin, ovalbumin, bovine serum albumin and gamma-globulin.
Substrate in data set [4]: O=C(O)CCC(=O)C(=O)O
Description: purified protein. It counts as biochemical, Synechocystis sp. PCC 6803. The following applies: 100 mmol/L Orn as amino donor, 0.1 mmol/L PLP, 6 mmol/L NAD+, 100 mmol/L Tris-HCl pH 8.5, 25 °C, apparent.

Substrate in data set [5]: CC(=O)N[C@@H](CCCN)C(=O)O
Put plainly: purified protein. It counts as biochemical, Synechocystis sp. PCC 6803. Conditions: saturating α-KG, 0.1 mmol/L PLP, 6 mmol/L NAD+, 100 mmol/L Tris-HCl pH 8.5, 25 °C, apparent.

With `Cc1ncc(COP(=O)(O)O)c(C=O)c1O` [PLP], the “UV-visible absorption at 410 nm (internal aldimine)” value on Slr1022 is given as “indicating that the cofactor PLP was bound to Slr1022 in the form of internal aldimine”.

B1: recombinant Slr1022 protein (N-acetylornithine aminotransferase encoded by slr1022 gene from Synechocystis sp. PCC6803) (enzyme, UniProt P73133 1-429, looked up)
chain: MTYSPVVESVEAQAFAVTDLSPAAEFKTADFDTYVMNTYGRFPIAIARGQGSTLWDTEGKSYLDFVAGIATCTLGHAHPALVRAVSDQIQKLHHVSNLYYIPEQGELAKWIVEHSCADRVFFCNSGAEANEAAIKLVRKYAHTVLDFLEQPVILTAKASFHGRTLATITATGQPKYQQYFDPLVPGFDYVPYNDIRSLENKVADLDEGNSRVAAIFLEPLQGEGGVRPGDLAYFKRVREICDQNDILLVFDEVQVGVGRTGKLWGYEHLGVEPDIFTSAKGLAGGVPIGAMMCKKFCDVFEPGNHASTFGGNPLACAAGLAVLKTIEGDRLLDNVQARGEQLRSGLAEIKNQYPTLFTEVRGWGLINGLEISAESSLTSVEIVKAAMEQGLLLAPAGPKVLRFVPPLVVTEAEIAQAVEILRQAIATLV
notes: N-acetylornithine aminotransferase (AcOAT) encoded by the slr1022 (argD) gene of Synechocystis sp; PCC6803; monomer printed as 49 kDa; The purified protein carries the cofactor PLP as internal aldimine (absorption at 410 nm); also called AcOAT; wild-type Slr1022; source: E. coli BL21 (DE3), pET28a-slr1022, purified (Ni-NTA)
For orientation: Km means the substrate concentration at which the rate is half of its maximum. As a reminder, the kcat is the number of substrate molecules converted per active site and unit of time at saturation. Usually kcat/Km stands for the second-order rate constant that governs catalysis at low substrate concentration. A word on the stoichiometry N: it is the number of molecules, sites or subunits per partner or assembly. B1: the Km in “purified protein [1]” is 20900 ± 3500 µM; in “purified protein [2]”, 78100 ± 18700 µM; in “purified protein [4]”, 130 ± 30 µM. Moreover, the kcat came to 0.16 s⁻¹ in the data set “purified protein [1]”, 0.14 s⁻¹ in the data set “purified protein [2]” and 0.11 ± 0.01 s⁻¹ in the data set “purified protein [4]”. Also, the catalytic efficiency (kcat/Km) in “purified protein [1]” was determined as 7.7 M⁻¹ s⁻¹; in the data set “purified protein [2]”, 1.8 M⁻¹ s⁻¹; in “purified protein [4]”, 846 M⁻¹ s⁻¹. Also, the “stoichiometry N” value in data set [3] came to 2.

B2: Slr1022 (Synechocystis sp. PCC 6803 substr. Kazusa; E223A) (protein)
chain: MTYSPVVESVEAQAFAVTDLSPAAEFKTADFDTYVMNTYGRFPIAIARGQGSTLWDTEGKSYLDFVAGIATCTLGHAHPALVRAVSDQIQKLHHVSNLYYIPEQGELAKWIVEHSCADRVFFCNSGAEANEAAIKLVRKYAHTVLDFLEQPVILTAKASFHGRTLATITATGQPKYQQYFDPLVPGFDYVPYNDIRSLENKVADLDEGNSRVAAIFLEPLQGAGGVRPGDLAYFKRVREICDQNDILLVFDEVQVGVGRTGKLWGYEHLGVEPDIFTSAKGLAGGVPIGAMMCKKFCDVFEPGNHASTFGGNPLACAAGLAVLKTIEGDRLLDNVQARGEQLRSGLAEIKNQYPTLFTEVRGWGLINGLEISAESSLTSVEIVKAAMEQGLLLAPAGPKVLRFVPPLVVTEAEIAQAVEILRQAIATLV
With B2, in “purified protein [5]”, the Michaelis constant (Km) was 7770 ± 1760 µM and the kcat was found to be 1.17 ± 0.09 s⁻¹.

B3: Slr1022 (Synechocystis sp. PCC 6803 substr. Kazusa; Y39F) (protein)
chain: MTYSPVVESVEAQAFAVTDLSPAAEFKTADFDTYVMNTFGRFPIAIARGQGSTLWDTEGKSYLDFVAGIATCTLGHAHPALVRAVSDQIQKLHHVSNLYYIPEQGELAKWIVEHSCADRVFFCNSGAEANEAAIKLVRKYAHTVLDFLEQPVILTAKASFHGRTLATITATGQPKYQQYFDPLVPGFDYVPYNDIRSLENKVADLDEGNSRVAAIFLEPLQGEGGVRPGDLAYFKRVREICDQNDILLVFDEVQVGVGRTGKLWGYEHLGVEPDIFTSAKGLAGGVPIGAMMCKKFCDVFEPGNHASTFGGNPLACAAGLAVLKTIEGDRLLDNVQARGEQLRSGLAEIKNQYPTLFTEVRGWGLINGLEISAESSLTSVEIVKAAMEQGLLLAPAGPKVLRFVPPLVVTEAEIAQAVEILRQAIATLV
Regarding B3, in the data set “purified protein [5]”, the Km was 470 ± 50 µM and the kcat was determined as 0.17 ± 0.01 s⁻¹.

B4: Slr1022 (Synechocystis sp. PCC 6803 substr. Kazusa; Q254A) (protein)
chain: MTYSPVVESVEAQAFAVTDLSPAAEFKTADFDTYVMNTYGRFPIAIARGQGSTLWDTEGKSYLDFVAGIATCTLGHAHPALVRAVSDQIQKLHHVSNLYYIPEQGELAKWIVEHSCADRVFFCNSGAEANEAAIKLVRKYAHTVLDFLEQPVILTAKASFHGRTLATITATGQPKYQQYFDPLVPGFDYVPYNDIRSLENKVADLDEGNSRVAAIFLEPLQGEGGVRPGDLAYFKRVREICDQNDILLVFDEVAVGVGRTGKLWGYEHLGVEPDIFTSAKGLAGGVPIGAMMCKKFCDVFEPGNHASTFGGNPLACAAGLAVLKTIEGDRLLDNVQARGEQLRSGLAEIKNQYPTLFTEVRGWGLINGLEISAESSLTSVEIVKAAMEQGLLLAPAGPKVLRFVPPLVVTEAEIAQAVEILRQAIATLV
Take B4: in the data set “purified protein [5]”, the Km came to 110 ± 10 µM and the kcat was found to be 0.02 ± 0.0005 s⁻¹.

B5: Slr1022 (Synechocystis sp. PCC 6803 substr. Kazusa; T308A) (protein)
chain: MTYSPVVESVEAQAFAVTDLSPAAEFKTADFDTYVMNTYGRFPIAIARGQGSTLWDTEGKSYLDFVAGIATCTLGHAHPALVRAVSDQIQKLHHVSNLYYIPEQGELAKWIVEHSCADRVFFCNSGAEANEAAIKLVRKYAHTVLDFLEQPVILTAKASFHGRTLATITATGQPKYQQYFDPLVPGFDYVPYNDIRSLENKVADLDEGNSRVAAIFLEPLQGEGGVRPGDLAYFKRVREICDQNDILLVFDEVQVGVGRTGKLWGYEHLGVEPDIFTSAKGLAGGVPIGAMMCKKFCDVFEPGNHASAFGGNPLACAAGLAVLKTIEGDRLLDNVQARGEQLRSGLAEIKNQYPTLFTEVRGWGLINGLEISAESSLTSVEIVKAAMEQGLLLAPAGPKVLRFVPPLVVTEAEIAQAVEILRQAIATLV
As to B5, in “purified protein [5]”, the Km came to 140 ± 20 µM and the kcat is 0.007 ± 0.002 s⁻¹.

B6: Slr1022 (Synechocystis sp. PCC 6803 substr. Kazusa; D251E) (protein)
chain: MTYSPVVESVEAQAFAVTDLSPAAEFKTADFDTYVMNTYGRFPIAIARGQGSTLWDTEGKSYLDFVAGIATCTLGHAHPALVRAVSDQIQKLHHVSNLYYIPEQGELAKWIVEHSCADRVFFCNSGAEANEAAIKLVRKYAHTVLDFLEQPVILTAKASFHGRTLATITATGQPKYQQYFDPLVPGFDYVPYNDIRSLENKVADLDEGNSRVAAIFLEPLQGEGGVRPGDLAYFKRVREICDQNDILLVFEEVQVGVGRTGKLWGYEHLGVEPDIFTSAKGLAGGVPIGAMMCKKFCDVFEPGNHASTFGGNPLACAAGLAVLKTIEGDRLLDNVQARGEQLRSGLAEIKNQYPTLFTEVRGWGLINGLEISAESSLTSVEIVKAAMEQGLLLAPAGPKVLRFVPPLVVTEAEIAQAVEILRQAIATLV
For the molecule B6, in “purified protein [5]”, the Km was found to be 1390 ± 220 µM and the kcat was found to be 0.47 ± 0.03 s⁻¹.

B7: Slr1022 (Synechocystis sp. PCC 6803 substr. Kazusa; E223S) (protein)
chain: MTYSPVVESVEAQAFAVTDLSPAAEFKTADFDTYVMNTYGRFPIAIARGQGSTLWDTEGKSYLDFVAGIATCTLGHAHPALVRAVSDQIQKLHHVSNLYYIPEQGELAKWIVEHSCADRVFFCNSGAEANEAAIKLVRKYAHTVLDFLEQPVILTAKASFHGRTLATITATGQPKYQQYFDPLVPGFDYVPYNDIRSLENKVADLDEGNSRVAAIFLEPLQGSGGVRPGDLAYFKRVREICDQNDILLVFDEVQVGVGRTGKLWGYEHLGVEPDIFTSAKGLAGGVPIGAMMCKKFCDVFEPGNHASTFGGNPLACAAGLAVLKTIEGDRLLDNVQARGEQLRSGLAEIKNQYPTLFTEVRGWGLINGLEISAESSLTSVEIVKAAMEQGLLLAPAGPKVLRFVPPLVVTEAEIAQAVEILRQAIATLV
As for B7, in “purified protein [5]”, the Km turned out to be 8810 ± 2960 µM and the kcat was 3.67 ± 0.43 s⁻¹.

B8: Slr1022 (Synechocystis sp. PCC 6803 substr. Kazusa; S125A) (protein)
chain: MTYSPVVESVEAQAFAVTDLSPAAEFKTADFDTYVMNTYGRFPIAIARGQGSTLWDTEGKSYLDFVAGIATCTLGHAHPALVRAVSDQIQKLHHVSNLYYIPEQGELAKWIVEHSCADRVFFCNAGAEANEAAIKLVRKYAHTVLDFLEQPVILTAKASFHGRTLATITATGQPKYQQYFDPLVPGFDYVPYNDIRSLENKVADLDEGNSRVAAIFLEPLQGEGGVRPGDLAYFKRVREICDQNDILLVFDEVQVGVGRTGKLWGYEHLGVEPDIFTSAKGLAGGVPIGAMMCKKFCDVFEPGNHASTFGGNPLACAAGLAVLKTIEGDRLLDNVQARGEQLRSGLAEIKNQYPTLFTEVRGWGLINGLEISAESSLTSVEIVKAAMEQGLLLAPAGPKVLRFVPPLVVTEAEIAQAVEILRQAIATLV
B8: in “purified protein [5]”, the Km worked out at 230 ± 20 µM and the kcat turned out to be 0.32 ± 0.01 s⁻¹.

B9: Slr1022 (Synechocystis sp. PCC 6803 substr. Kazusa; A127S) (protein)
chain: MTYSPVVESVEAQAFAVTDLSPAAEFKTADFDTYVMNTYGRFPIAIARGQGSTLWDTEGKSYLDFVAGIATCTLGHAHPALVRAVSDQIQKLHHVSNLYYIPEQGELAKWIVEHSCADRVFFCNSGSEANEAAIKLVRKYAHTVLDFLEQPVILTAKASFHGRTLATITATGQPKYQQYFDPLVPGFDYVPYNDIRSLENKVADLDEGNSRVAAIFLEPLQGEGGVRPGDLAYFKRVREICDQNDILLVFDEVQVGVGRTGKLWGYEHLGVEPDIFTSAKGLAGGVPIGAMMCKKFCDVFEPGNHASTFGGNPLACAAGLAVLKTIEGDRLLDNVQARGEQLRSGLAEIKNQYPTLFTEVRGWGLINGLEISAESSLTSVEIVKAAMEQGLLLAPAGPKVLRFVPPLVVTEAEIAQAVEILRQAIATLV
B9: in the data set “purified protein [5]”, the Km was 590 ± 120 µM and the kcat was found to be 0.21 ± 0.01 s⁻¹.

The record behind these values is PMC10057298, “Kinetic Characterization and Catalytic Mechanism of N-Acetylornithine Aminotransferase Encoded by slr1022 Gene from Synechocystis sp. PCC6803” (International Journal of Molecular Sciences, 2023).
